In patent publication US9631002B2, “Methods and compositions for producing active vitamin K-dependent proteins” (The University of North Carolina at Chapel Hill, priority 2010, dated 2017):
Changes are numbered by the printed parent chain. Numbers in names are those of the source.

How the values were obtained:
[1] = test system: FIXgla-PC carboxylation in HEK 293 cells; assay type: cell-based, human; settings: 11 μM vitamin K or 5 μM KO, HEK293
[2] = test system: carboxylation of FIXgla-PC reporter protein in HEK293 cells (reduction of KO to vitamin K); assay: Cell-based VKOR activity assay: recombinant VKOR/VKORH expressed in FIXgla-PC/HEK293 cells with KO and warfarin, carboxylated reporter by ELISA; set-up: species or system human; settings: for Relative activity: Human Y139F: VKOR of the organism compared to human Y139F VKOR, cell-based carboxylation; for support of carboxylation of the reporter protein with KO as substrate / ability of human VKOR with replaced residues 122-139 to use KO to carboxylate the reporter: 5 μM KO; for support of carboxylation of the reporter protein with KO as substrate: 4 μM warfarin, 48 h (FIG. 15B); for ability of human VKOR with replaced residues 122-139 to use KO to carboxylate the reporter: 2 μM warfarin, 48 h, HEK293 (FIG. 11C); for carboxylation activity of modified human VKOR: FIGS. 23, 33; for activity relative to MT-VKORH: KO as substrate, FIXgla-PC/HEK293 (FIG. 21B)
[3] = test system: carboxylation of FIXgla-PC reporter protein in AV12 cells (reduction of vitamin K to KH2); assay: Cell-based VKOR activity assay in FIXgla-PC/AV12 or FIXgla-PC/VKOR-Y139F/AV12 cells, carboxylated reporter by ELISA; set-up: species or system Syrian golden hamster; settings: for activity in reducing vitamin K to KH2 to support carboxylation: transient expression in FIXgla-PC/VKOR-Y139F/AV12, KO and warfarin (FIG. 19A); for ability of human VKOR with replaced residues 122-139 to use vitamin K to carboxylate the reporter: 11 μM K, 2 μM warfarin, 48 h, FIXgla-PC AV-12 (FIG. 11B); for ability to reduce vitamin K to KH2 compared with MT-VKORH: FIXgla-PC/VKOR-Y139F/AV12 (FIG. 21C)

CC(=CCC12OC1(C)C(=O)c1ccccc1C2=O)CCCC(C)CCCC(C)CCCC(C)C (stereo not drawn) [KO, Vitamin K1 2,3-epoxide]
increase in secretion of carboxylated reporter protein compared to no additions [1]: approximately 25 fold

B1: Amphioxus: Amphioxus VKOR, SEQ ID NO:11, Y144F (protein, listed as Branchiostoma floridae)
chain: MAAGRSFRLPIWEILSRCMLCTAGLVLSGYAFYVETSKEADHSYTAMCDVSESVSCSKVFTSRFGRGFGLVEPILGADSPLNLPNSIFGLAFYIMQLCLGVVPGMSVSIVLLATSVLSCLGCVYLAYILYFILQDACIVCISTFVVNTFMLIVNIKRVLLQRKAILKKQQ
Relative activity: Human Y139F [2]: Yes, greater

B2: Trichoplax: Trichoplax VKOR XM_002107720.1, SEQ ID NO:15 (protein, listed as Trichoplax adhaerens)
chain: B1 chain with F144Y, F149L, I152V, I165L
Relative activity: Human Y139F [2]: No

B3: AR-VKORH: Arabidopsis VKORH, NP_567988.1, SEQ ID NO:19 (protein, listed as Arabidopsis thaliana)
chain: MMARFVSVSSCQFHFGFREVSPPSVTSYPRRFEVSDRRFPAIPIKCSSSEPENGEDSAPSLSSSSSSSTSEVSTSNSSTYNWYTGIGGIGMLDTAYLTYLKVTGSDAFCPIGGGTCGDVLNSDYAVVFGVPLPVIGFVMYGVVTALSAELGEGNLPFGISKSNGRFALFGITTAMASASAYFLYILSTKLSGSSCLYCLVSAFLSFSLFFLSVKDVKLQEIQQVVGLQICLAIIVVASLTASYSTAQPIPSRSGDIELPYFRTEISSSSSPYAIALAKHLNSIGAKMYGAFWCSHCLEQKEMFGREAAKELNYVECFPDGYKKGTKILKACADAAIEGFPTWIINDKVLS
support of carboxylation of the reporter protein with KO as substrate [2]: only MT-VKORH supported carboxylation
activity in reducing vitamin K to KH2 to support carboxylation [3]: no significant activity

B4: RO-VKORH: Roseiflexus sp. RS-1 VKORH, SEQ ID NO:20 (protein)
chain: MRRFLLTLIVSCMLTLSLSVASAAATVRAVLFYSPRCGHCHMVISEHLPPLQQRYGDQLQILMIDVDQAQGAALYREAIAVYAIPEARRGVPTMIISDTVLVGSVEIPQRLPGLIETLLARGGSDWPPIPGLADLLATVPTSAPAPPTLPPATAETPPFLRDLPANALAVVVLAGMLLTVMWAGITWSRPAQPPTRWRDRSIPLLAIGGMAVAAYLTFIETTGAPALCGPVGDCNAVQQSEFARLFGTIPVGAAGVAGYGAILIVWIVAHLLPGTSGERAALLLPALALIGTLFSIYLTFLEPFVIGATCLWCLTSAVIMTGLLWLSMPYRQRSTSRGYARR
modifications: Roseiflexus sp. RS-1
support of carboxylation of the reporter protein with KO as substrate [2]: only MT-VKORH supported carboxylation
activity in reducing vitamin K to KH2 to support carboxylation [3]: significant activity

B5: hVKOR DsbB: human VKOR with residues 122-139 replaced by bacterial DsbB 33-50, SEQ ID NO:32 (protein)
chain: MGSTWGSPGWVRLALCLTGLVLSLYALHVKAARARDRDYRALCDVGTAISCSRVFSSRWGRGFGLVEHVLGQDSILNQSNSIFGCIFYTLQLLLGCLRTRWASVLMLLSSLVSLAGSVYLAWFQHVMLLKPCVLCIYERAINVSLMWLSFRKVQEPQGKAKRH
modifications: Human VKOR with amino acids 122-139 substituted with amino acids 33-50 of DsbB enzyme (RefSeq accession no. ZP_03067529)
ability of human VKOR with replaced residues 122-139 to use KO to carboxylate the reporter [2]: only the human VKOR substituted with the M. tuberculosis domain functions as a VKOR
ability of human VKOR with replaced residues 122-139 to use vitamin K to carboxylate the reporter [3]: can utilize vitamin K to produce carboxylated reporter protein

B6: hVKOR Arabidopsis: human VKOR with residues 122-139 replaced by Arabidopsis VKOR 185-202, SEQ ID NO:30 (protein)
chain: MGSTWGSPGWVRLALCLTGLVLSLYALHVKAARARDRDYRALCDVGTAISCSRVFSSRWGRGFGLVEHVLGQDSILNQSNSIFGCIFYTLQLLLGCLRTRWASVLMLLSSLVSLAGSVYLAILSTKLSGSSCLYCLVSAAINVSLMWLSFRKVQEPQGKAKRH
modifications: Human VKOR with amino acids 122-139 substituted with amino acids 185-202 of A. thaliana VKOR (RefSeq accession no. NP_567988)
ability of human VKOR with replaced residues 122-139 to use KO to carboxylate the reporter [2]: only the human VKOR substituted with the M. tuberculosis domain functions as a VKOR
ability of human VKOR with replaced residues 122-139 to use vitamin K to carboxylate the reporter [3]: can utilize vitamin K to produce carboxylated reporter protein

B7: V45N: human VKOR comprising a V45N substitution introducing an additional glycosylation site, SEQ ID NO:25 (protein)
chain: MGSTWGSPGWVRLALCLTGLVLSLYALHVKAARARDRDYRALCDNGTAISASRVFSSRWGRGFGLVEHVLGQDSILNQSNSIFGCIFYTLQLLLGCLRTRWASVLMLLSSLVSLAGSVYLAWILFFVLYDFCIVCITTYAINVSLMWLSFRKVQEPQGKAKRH
modifications: Human VKOR with V45N mutation
carboxylation activity of modified human VKOR [2]: increased carboxylation activity

B8: Xenopus tropicalis: Xenopus VKOR NP_001006928, SEQ ID NO:8, Y138F (protein)
chain: MAVPGWERAVRLLLCGVGIALSVYAYHVETSRERDANYTALCDINPSISCSKVFTSRWGRGFGLVEQILGRQSFLNQPNSVFGILFYGLQVLLGFSGSVGAAAALLGTSLVSIAGSLYLAYILFYVLEDFCVICVTTFALNFCLLLLNLKRLASLRAPPKKQKNKRKKN
modifications: Xenopus (Silurana) tropicalis
Relative activity: Human Y139F [2]: Yes, greater

B9: SA-VKORH: Salinispora tropica CNB-440 VKORH, SEQ ID NO:24 (protein)
chain: MTTTANRPVTTPAERHFLAAVTAWVLTIGGAVGLLAAAALTVEKINLLADPGYVPTCSINPILSCGSVMNTPQAAVFGFPNPLLGIAGFAVVTTLGVTLLATGHLPRWMWLGLQGGVTFGVVFVHWLIYQSLYVIGALCPYCMVVWAVTIPIFLYTTLQTLRDNTTALPRALRRVTERVARYHSLVLVVWAAFVVVVILHRFWDYWSTLG
modifications: Salinispora tropica CNB-440
activity relative to MT-VKORH [2]: 30%
ability to reduce vitamin K to KH2 compared with MT-VKORH [3]: higher than the KO to vitamin K reduction

B10: CO-VKORH: Corynebacterium jeikeium K411 VKORH, SEQ ID NO:23 (protein, listed as Corynebacterium jeikeium)
chain: MWVWWGREGVSNKESEHMNGLGATKRFGYTFLVLSTIGLIFSALIMHDKVQMALDPNFEPACTFNEVISCTDVMASDQAATFGFANPFIGMIGFPVMMTLAVMLIVGAKLPRWIWYCALAGLAFGVAFVHWLAYSAIYSIGALCPYCMAVWAATLPMFVMTLVHIQREKRREAGEDVAHSALGMPLVVIIAWFLAFTALILDQFVF
activity relative to MT-VKORH [2]: 70%
ability to reduce vitamin K to KH2 compared with MT-VKORH [3]: higher than the KO to vitamin K reduction

B11: SY-VKORH: Synechococcus sp. VKORH, SEQ ID NO:21 (protein)
chain: MASYLKLKAQEETWLQRHSRLILAILAGLGSLLTAYLTYTKLTEQPAAFCTGDGGCDLVLSSRWAEFLGIPTAAVGLLGFLGVLALAVLPDGLPLVKRWRWPALFGLVSAMTAFEMYMLYLMVAVLRQFCMYCTTAIILVAGLGLVTVLGHRWLDGGKLAFSYILVAFLTLVTTIGVYANQVPPPSPLAVGLAAHLRQIGGTMYGAYWCPHCQDQKELFGAAFDQVPYVECSPNGPGTPQAQECTEAGITSYPTWIINGRTYTGVRSLEALAVASGYPLEEGR
modifications: Synechococcus sp. JA-2-3B′a(2-13)
support of carboxylation of the reporter protein with KO as substrate [2]: only MT-VKORH supported carboxylation
activity in reducing vitamin K to KH2 to support carboxylation [3]: no significant activity

B12: Takifugu: Takifugu VKOR NP_001027838, SEQ ID NO:7, Y138F (protein)
chain: MAIPTWERKVRIFLCVFGLLLSVYALHVELSRERNPDYRAMCDLGESVSCSKVFSSRWGRGFGLVQYFVDKDSPLNQPNSVLGIIFYTLQMCLGLSLSRKAALFLVFSSWVSVAGSLYLASILAFVLGDFCMVCVSTFLVNFVLLFTNLKRRRAIEGLKEKSG
modifications: Takifugu rubripes
Relative activity: Human Y139F [2]: Yes, greater

B13: Human VKOR with amino acids 44-50 substituted with amino acids DYKDDDDK (Flag tag): human VKOR cysteine loop 44-50 replaced with FLAG tag, SEQ ID NO:34 (protein)
chain: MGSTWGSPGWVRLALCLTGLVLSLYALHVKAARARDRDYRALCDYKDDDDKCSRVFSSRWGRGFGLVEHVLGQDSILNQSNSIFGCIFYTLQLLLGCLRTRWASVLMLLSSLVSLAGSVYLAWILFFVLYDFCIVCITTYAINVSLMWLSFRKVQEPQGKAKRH
modifications: Human VKOR with amino acids 44-50 substituted with amino acids DYKDDDDK (Flag tag)
carboxylation activity of modified human VKOR [2]: increased activity
